# In PMC9352680, “A comprehensive thermodynamic model for RNA binding by the Saccharomyces cerevisiae Pumilio protein PUF4”:
# Positions count from the first letter of the chain named. Names and notes keep the numbering of the source.
# T1: PUF4 RNA-binding domain (Saccharomyces cerevisiae, UniProt P25339 537-888)
# T1 sequence: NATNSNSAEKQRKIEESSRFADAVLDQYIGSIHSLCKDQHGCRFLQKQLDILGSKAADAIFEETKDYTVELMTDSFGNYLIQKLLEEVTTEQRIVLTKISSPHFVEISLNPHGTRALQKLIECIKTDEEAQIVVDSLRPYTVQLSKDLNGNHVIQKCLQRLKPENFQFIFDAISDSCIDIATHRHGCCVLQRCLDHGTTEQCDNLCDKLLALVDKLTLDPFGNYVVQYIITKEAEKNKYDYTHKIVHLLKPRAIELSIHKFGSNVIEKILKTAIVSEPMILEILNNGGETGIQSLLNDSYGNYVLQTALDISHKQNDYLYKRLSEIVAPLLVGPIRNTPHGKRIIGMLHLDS
# B1: Ic_S2_P4E.1_K4.1_C4.1_H4.1_A4.1_[T5G]_[A6C]_[T7G]_F4.1_T4.1 (ssRNA)
# RNA: UUUGAUUAAUAUGAUAUCGUUCUUUCUUGUAGCGUAUUCUUUCUCGAUAUCAUAUUAAUCUUU
# B2: Ic_S2_P4E.1_K4.1_C4.1_H4.1_A4.1_[T5G]_[A6T]_[T7C]_F4.1_[T8C]_[A9C]_T4.1 (ssRNA)
# RNA: B1 RNA with C33U, G34C, U35C, A36C
# B3: Ic_S2_P4E.1_K4.1_C4.1_H4.1_A4.1_[T5G]_[A6C]_F4.1_[T8A]_T4.1 (ssRNA)
# RNA: B1 RNA with G34U, U35A
# B4: Ic_S2_P4E.1_K4.1_C4.1_H4.1_A4.1_[T5G]_[A6T]_[T7C]_F4.1_[T8G]_[A9T]_T4.1 (ssRNA)
# RNA: B1 RNA with C33U, G34C, U35G, A36U
# B5: Ic_S2_P4E.1_K4.1_C4.1_H4.1_A4.1_[T5G]_[A6C]_[T7C]_F4.1_[T8C]_[A9C]_T4.1 (ssRNA)
# RNA: B1 RNA with G34C, U35C, A36C
# B6: Ic_S2_P4E.1_K4.1_C4.1_H4.1_A4.1_[T5G]_[A6T]_[T7A]_F4.1_[T8A]_[A9T]_T4.1 (ssRNA)
# RNA: B1 RNA with C33U, G34A, U35A, A36U
# B7: Ic_S2_P4E.1_K4.1_C4.1_H4.1_A4.1_[T5G]_[A6T]_[T7C]_F4.1_[T8C]_[A9T]_T4.1 (ssRNA)
# RNA: B1 RNA with C33U, G34C, U35C, A36U
# B8: Ic_S2_P4E.1_K4.1_C4.1_H4.1_A4.1_[T5G]_[A6C]_F4.1_[A9G]_T4.1 (ssRNA)
# RNA: B1 RNA with G34U, A36G
# B9: Ic_S2_P4E.1_K4.1_C4.1_H4.1_A4.1_[T5G]_[A6T]_F4.1_[T8C]_[A9C]_T4.1 (ssRNA)
# RNA: B1 RNA with C33U, G34U, U35C, A36C
# B10: Ic_S2_P4E.1_K4.1_C4.1_H4.1_A4.1_[T5G]_[A6T]_F4.1_[T8A]_[A9T]_T4.1 (ssRNA)
# RNA: B1 RNA with C33U, G34U, U35A, A36U
# B11: Ic_S2_P4E.1_K4.1_C4.1_H4.1_A4.1_[T5G]_[A6C]_[T7A]_F4.1_T4.1 (ssRNA)
# RNA: B1 RNA with G34A
# B12: Ic_S2_P4E.1_K4.1_C4.1_H4.1_A4.1_[T5G]_[A6T]_[T7A]_F4.1_[T8A]_T4.1 (ssRNA)
# RNA: B1 RNA with C33U, G34A, U35A
# B13: Ic_S2_P4E.1_K4.1_C4.1_H4.1_A4.1_[T5C]_[A6G]_[T7C]_F4.1_[T8C]_[A9T]_T4.1 (ssRNA)
# RNA: B1 RNA with G32C, C33G, G34C, U35C, A36U
# B14: Ic_S2_P4E.1_K4.1_C4.1_H4.1_A4.1_[T5C]_[A6G]_[T7C]_F4.1_[T8G]_[A9T]_T4.1 (ssRNA)
# RNA: B1 RNA with G32C, C33G, G34C, U35G, A36U
# B15: Ic_S2_P4E.1_K4.1_C4.1_H4.1_A4.1_[T5G]_[A6T]_[T7A]_F4.1_[A9T]_T4.1 (ssRNA)
# RNA: B1 RNA with C33U, G34A, A36U
# B16: Ic_S2_P4E.1_K4.1_C4.1_H4.1_A4.1_[T5G]_[A6C]_[T7A]_F4.1_[A9T]_T4.1 (ssRNA)
# RNA: B1 RNA with G34A, A36U
# B17: Ic_S2_P4E.1_K4.1_C4.1_H4.1_A4.1_[T5G]_[A6C]_[T7C]_F4.1_[T8A]_[A9C]_T4.1 (ssRNA)
# RNA: B1 RNA with G34C, U35A, A36C
# B18: Ic_S2_P4E.1_K4.1_C4.1_H4.1_A4.1_[T5G]_[A6C]_[T7C]_F4.1_[T8C]_[A9G]_T4.1 (ssRNA)
# RNA: B1 RNA with G34C, U35C, A36G
# B19: Ic_S2_P4E.1_K4.1_C4.1_H4.1_A4.1_[T5G]_[A6C]_F4.1_[T8C]_[A9G]_T4.1 (ssRNA)
# RNA: B1 RNA with G34U, U35C, A36G
# B20: Ic_S2_P4E.1_K4.1_C4.1_H4.1_A4.1_[T5G]_[A6T]_F4.1_[A9G]_T4.1 (ssRNA)
# RNA: B1 RNA with C33U, G34U, A36G
# B21: Ic_S2_P4E.1_K4.1_C4.1_H4.1_A4.1_[T5G]_[A6T]_[T7C]_F4.1_T4.1 (ssRNA)
# RNA: B1 RNA with C33U, G34C
# B22: Ic_S2_P4E.1_K4.1_C4.1_H4.1_A4.1_[T5G]_[A6C]_F4.1_[T8A]_[A9G]_T4.1 (ssRNA)
# RNA: B1 RNA with G34U, U35A, A36G
# B23: Ic_S2_P4E.1_K4.1_C4.1_H4.1_A4.1_[T5G]_[A6C]_[T7C]_F4.1_[T8C]_[A9T]_T4.1 (ssRNA)
# RNA: B1 RNA with G34C, U35C, A36U
# B24: Ic_S2_P4E.1_K4.1_C4.1_H4.1_A4.1_[T5G]_[A6T]_[T7C]_F4.1_[T8G]_[A9C]_T4.1 (ssRNA)
# RNA: B1 RNA with C33U, G34C, U35G, A36C
# B25: Ic_S2_P4E.1_K4.1_C4.1_H4.1_A4.1_[T5C]_[A6G]_[T7C]_F4.1_[T8C]_T4.1 (ssRNA)
# RNA: B1 RNA with G32C, C33G, G34C, U35C
# B26: Ic_S2_P4E.1_K4.1_C4.1_H4.1_A4.1_[T5G]_[A6C]_[T7C]_F4.1_[A9T]_T4.1 (ssRNA)
# RNA: B1 RNA with G34C, A36U
# B27: Ic_S2_P4E.1_K4.1_C4.1_H4.1_A4.1_[T5G]_[A6C]_[T7C]_F4.1_[T8A]_[A9T]_T4.1 (ssRNA)
# RNA: B1 RNA with G34C, U35A, A36U
# B28: Ic_S2_P4E.1_K4.1_C4.1_H4.1_A4.1_[T5G]_[A6T]_[T7A]_F4.1_[T8G]_[A9T]_T4.1 (ssRNA)
# RNA: B1 RNA with C33U, G34A, U35G, A36U
# Target: T1, PUF4 RNA-binding domain
# Test: Mg; RNA-MaP; 20 mM Na-HEPES pH 7.4, 30 mM KOAc, 0.75 mM MgCl2, 0.1% Tween-20, 5% glycerol, 0.1 mg/mL BSA, 2 mM DTT; 25 C; 0.0125-409.6 nM protein
# Details: tags: N-His6-TEV cleaved; C-SNAP kept, Cy3B-labelled; label: tethered on chip by stalled RNA polymerase
binder,measurement,value
UCUCUUUGUUCAUAUCUCUU (ssRNA) [Ib_S1_P3E.1_K3.1_C3.1_H3.1_[A4T]_A3.1_[T5C]_F3.1_T3.1],Kd,682 nM
B1,Kd,9.8 nM
B2,Kd,473 nM
B3,Kd,111 nM
B4,Kd,288 nM
B5,Kd,685 nM
B6,Kd,342 nM
B7,Kd,121 nM
B8,Kd,208 nM
B9,Kd,257 nM
B10,Kd,148 nM
B11,Kd,1.41 nM
B12,Kd,407 nM
B13,Kd,81.6 nM
B14,Kd,332 nM
B15,Kd,26.4 nM
B16,Kd,9.32 nM
B17,Kd,1280 nM
B18,Kd,1680 nM
B19,Kd,988 nM
B20,Kd,95.3 nM
B21,Kd,4.56 nM
B22,Kd,846 nM
B23,Kd,614 nM
B24,Kd,598 nM
B25,Kd,22.8 nM
B26,Kd,48 nM
B27,Kd,402 nM
B28,Kd,984 nM
